For one substance, pre-F antigen level (MPE8 binding) relative to A2 results are on record in patent publication US20180333477A1.

This test concerns the target RSV line 19 F protein with I557V, as expressed by vaccine candidate OE4 (respiratory syncytial virus strain line 19) (UniProt P12568). Nature of the test: MPE8 binding to virus stocks kept at 4 C over 8 days.

For the substance Pre-F-specific mAb MPE8 (antibody), the pre-F antigen level (MPE8 binding) relative to A2 is greater than 2 fold.
